According to publication PMC4114559, “Pigment Dispersing Factor Regulates Ecdysone Biosynthesis via Bombyx Neuropeptide G Protein Coupled Receptor-B2 in the Prothoracic Glands of Bombyx mori” (PLoS ONE, 2014):

What was measured:
[1] = test system: PGs; conditions: cited from earlier work
Text: In many cases, a single hormone has multiple functions regulating many physiological phenomena. Thus, both the regulation of receptor expression in the target tissue and the regulation of hormone release are important for the hormone to only affect the target tissue at the appropriate time. In the case of PTTH, the titer of the hormone in the hemolymph is clearly correlated with the ecdysteroid titer ... || In insects, neuropeptide hormones affect the target tissue via humoral and neuronal pathways. […] The increase in intracellular cAMP is thought to be regulated by Ca^2+ signaling in the PTTH signaling pathway, [37]. […] PDF sig ... || (+ 1 further places)

[2] = test system: PGs of B. mori; assay: Intracellular cAMP level in cultured PGs; type: cell-based, Bombyx mori; conditions: Ca2+-free lepidopteran saline, n = 4–8
Experimental: Dissected PGs were rinsed with Grace's insect culture medium (Gibco) and pre-cultured individually in 100 µl medium in 96-well plates (BD Falcon) at 25°C for 30 min. To evaluate the effect of extracellular Ca^2+ on ecdysone biosynthesis, lepidopteran saline and lepidopteran saline using NaCl as a replacement for CaCl2 were used. For the pharmacological analysis, the PG was pre-treated with the inhibitor for 15 min during the pre-culture period. Following this treatment, the PG was cultured in the desired conditions for the desired period (Ecdysone assay: 3 hours; cAMP assay: 30 min; and Protein phosphorylation assay: 15 min). Actinomycin D, H-89 and cycloheximide (CHX) were purchased from Sigma; Rapamycin was purchased from Santa Cruz Biotechnology; and LY294002 was purchased from Merck. H-89 was dissolved in water. The other inhibitors were dissolved in DMSO. […]
HEK293 cells were transfected with an empty mammalian expression vector (pME18S) or the full-length BNGR-B2 ORF inserted into the pME18S vector (BNGR-B2/pME18S) using Lipofectamine LTX with PLUS reagent (Invitrogen) according to the manufacturer's instructions. […] The luminescence was measured with a Wallac ARVO SX 1420 Multilabel Counter (PerkinElmer).
Figure 3 Prothoracicotropic activities of PDF in vitro. […] Statistically significant differences were evaluated by Student's t-test (***P<0.001, **P<0.01, *P<0.05).

B1: PTTH: prothoracicotropic hormone, humoral pathway-mediated tropic hormone (protein, UniProt P17219 116-224, looked up)
Prothoracicotropic hormone: GNIQVENQAIPDPPCTCKYKKEIEDLGENSVPRFIETRNCNKTQQPTCRPPYICKESLYSITILKRRETKSQESLEIPNELKYRWVAESHPVSVACLCTRDYQLRYNNN
modifications: Prothoracicotropic hormone
Q: With B1 as the molecule, how does the “response of V4 PGs, ecdysone synthesis in vitro (literature)” value ([1]; PGs of V4, ref [8]) read?
A: Its value is “capable of responding to PTTH stimulus and synthesize ecdysone in vitro”.

Q: What about the “ecdysone biosynthesis when extracellular Ca2+ is depleted (literature)” value ([1]; extracellular Ca2+ depleted, ref [27], [37]) of the same molecule?
A: Its value is “cannot stimulate ecdysone biosynthesis when extracellular Ca^2+ is depleted”.

Q: And the “effect of a transcription inhibitor on PTTH- and dbcAMP-induced ecdysone biosynthesis (literature)” value ([1]; ref [39])?
A: Its value is “ecdysone biosynthesis was suppressed by a transcription inhibitor”.

Q: What about the “effect of Ca2+ depletion on induced upregulation of intracellular cAMP levels” value [2] of the same molecule?
A: Its value is “suppressed PTTH-induced upregulation of intracellular cAMP levels”.
